Results published in patent US10800847.

How the values were obtained:
[1] = molecular target: HLA-Cw*0202 (Cw2) (human); experiment: Luminex, iBeads (#6), 1:8
[2] = molecular target: HLA-A*6602 (A66) single antigen on beads (human); experiment: Luminex, iBead vs regular bead, IVIg 1:8
[3] = molecular target: HLA-A*4301 (A43) single antigen on beads (human); experiment: Luminex single-antigen regular beads (#7), IVIg 1:8
HLA-B*1516 (B63) (human) [4] = experiment: iBead MFI against regular-bead MFI, IVIg diluted 1:8
[5] = molecular target: HLA-Cw*0401 (Cw4) (human); experiment: Luminex, iBeads (#6), 1:8
[6] = molecular target: HLA-A*4301 (A43) single antigen on beads (human); experiment: Luminex, iBead vs regular bead, IVIg 1:8
HLA-B*1501 (B62) (human) [7] = experiment: Luminex regular beads (#7), IVIg diluted 1:8
[8] = molecular target: HLA-A*7401 (A74) single antigen on Luminex beads (human); experiment: Luminex single antigen bead assay, iBeads (#6), IVIg 1:8
[9] = molecular target: HLA-A*6802 (A68) single antigen on Luminex beads (human); experiment: Luminex single antigen bead assay, iBeads vs regular beads, IVIg 1:8
[10] = molecular target: HLA-A*7401 (A74) single antigen on Luminex beads (human); experiment: as above
[11] = molecular target: HLA-Cw*0102 (Cw1) (human); experiment: Luminex, iBeads (#6), 1:8
[12] = molecular target: HLA-Cw*0801 (Cw8) (human); experiment: Luminex, regular beads (#7), 1:8
[13] = molecular target: HLA-A*3002 (A30) single antigen on beads (human); experiment: Luminex, iBead vs regular bead, IVIg 1:8
[14] = molecular target: HLA-A*3201 (A32) single antigen on beads (human); experiment: Luminex, iBead vs regular bead, IVIg 1:8
[15] = molecular target: HLA-A*6802 (A68) single antigen on Luminex beads (human); experiment: Luminex single antigen bead assay, regular beads (#7), IVIg 1:8
HLA-B*0702 (B7) (human) = experiment: Luminex regular beads (#7), IVIg diluted 1:4
HLA-B*0801 (B8) (human) = experiment: Luminex regular beads (#7), IVIg diluted 1:4
HLA-B*1301 (B13) (human) = experiment: Luminex regular beads (#7), IVIg diluted 1:4
HLA-B*1302 (B13) (human) = experiment: Luminex regular beads (#7), IVIg diluted 1:4
HLA-B*1401 (B64) (human) = experiment: Luminex regular beads (#7), IVIg diluted 1:4
HLA-B*1402 (B65) (human) = experiment: Luminex regular beads (#7), IVIg diluted 1:4
HLA-B*1501 (B62) (human) [16] = experiment: Luminex regular beads (#7), IVIg diluted 1:4
HLA-B*1502 (B75) (human) = experiment: Luminex regular beads (#7), IVIg diluted 1:4
HLA-B*1503 (B72) (human) = experiment: Luminex regular beads (#7), IVIg diluted 1:4
HLA-B*1510 (B71) (human) = experiment: Luminex regular beads (#7), IVIg diluted 1:4
HLA-B*1511 (B75) (human) = experiment: Luminex regular beads (#7), IVIg diluted 1:4
HLA-B*1516 (B63) (human) [17] = experiment: Luminex regular beads (#7), IVIg diluted 1:4
HLA-B*1801 (B18) (human) = experiment: Luminex regular beads (#7), IVIg diluted 1:4
[18] = molecular target: HLA-B*2705 (B27) single antigen on Luminex beads (human); experiment: Luminex single antigen, iBeads (#6), IVIg 1:8
[19] = molecular target: HLA-B*2708 (B27) single antigen on Luminex beads (human); experiment: Luminex single antigen, iBeads (#6), IVIg 1:8
[20] = molecular target: HLA-B*3501 (B35) single antigen on Luminex beads (human); experiment: Luminex single antigen, iBeads (#6), IVIg 1:8
[21] = molecular target: HLA-B*3701 (B37) single antigen on Luminex beads (human); experiment: Luminex single antigen, iBeads (#6), IVIg 1:8
[22] = molecular target: HLA-B*3801 (B38) single antigen on Luminex beads (human); experiment: Luminex single antigen, iBeads (#6), IVIg 1:8
[23] = molecular target: HLA-B*3901 (B39) single antigen on Luminex beads (human); experiment: Luminex single antigen, iBeads (#6), IVIg 1:8
[24] = molecular target: HLA-B*4001 (B60) single antigen on Luminex beads (human); experiment: Luminex single antigen, iBeads (#6), IVIg 1:8
[25] = molecular target: HLA-B*4002 (B61) single antigen on Luminex beads (human); experiment: Luminex single antigen, iBeads (#6), IVIg 1:8
[26] = molecular target: HLA-B*4006 (B61) single antigen on Luminex beads (human); experiment: Luminex single antigen, iBeads (#6), IVIg 1:8
[27] = molecular target: HLA-B*4101 (B41) single antigen on Luminex beads (human); experiment: Luminex single antigen, iBeads (#6), IVIg 1:8
[28] = molecular target: HLA-B*4201 (B42) single antigen on Luminex beads (human); experiment: Luminex single antigen, iBeads (#6), IVIg 1:8
[29] = molecular target: HLA-B*4402 (B44) single antigen on Luminex beads (human); experiment: Luminex single antigen, iBeads (#6), IVIg 1:8
[30] = molecular target: HLA-B*4403 (B44) single antigen on Luminex beads (human); experiment: Luminex single antigen, iBeads (#6), IVIg 1:8
[31] = molecular target: HLA-B*4501 (B45) single antigen on Luminex beads (human); experiment: Luminex single antigen, iBeads (#6), IVIg 1:8
[32] = molecular target: HLA-B*4601 (B46) single antigen on Luminex beads (human); experiment: Luminex single antigen, iBeads (#6), IVIg 1:8
[33] = molecular target: HLA-B*4701 (B47) single antigen on Luminex beads (human); experiment: Luminex single antigen, iBeads (#6), IVIg 1:8

Row | MFI [1] | Difference % (iBead MFI vs regular bead MFI) [2] | MFI [3] | Difference % (iBead vs regular bead) (HLA-B*1516 (B63) (human) [4]) | MFI [5] | Difference % (iBead MFI vs regular bead MFI) [6] | MFI (HLA-B*1501 (B62) (human) [7]) | MFI [8] | Difference % (iBead MFI against regular bead MFI) [9] | Difference % (iBead MFI against regular bead MFI) [10] | MFI [11] | MFI [12] | Difference % (iBead MFI vs regular bead MFI) [13] | Difference % (iBead MFI vs regular bead MFI) [14] | MFI [15] | Substance | also measured
1 | 8100 MFI | 83% | 1910 MFI | -7% |  |  |  |  |  |  |  |  |  |  |  | IVIg GamaSTAN S/D (Talecris Biotherapeutics, USA) (antibody) | 
2 |  | 372% |  | -36% | 3730 MFI | 186% | 0 MFI | 3900 MFI | 228% | 486% |  |  |  |  |  | IVIg Gamunex-C Lot NKLG1 (antibody) | 
3 |  |  | 1170 MFI |  |  |  | 15 MFI | 515 MFI | 46% |  | 1060 MFI | 4540 MFI | 151% | 116% | 1330 MFI | IVIg Gamunex-C Lot NKLK1 (antibody) | 
4 | 1840 MFI |  |  |  | 2010 MFI | -11% |  |  |  | -59% | 1780 MFI | 4420 MFI | -31% | -30% | 1750 MFI | IVIg Octagam (Octapharma, Lachen, Switzerland) (antibody) | 
5 |  |  |  |  |  |  |  |  |  |  |  |  |  |  |  | IVIg Sandoglobulin (Novartis, Basel, Switzerland) (antibody) | MFI (HLA-B*0702 (B7) (human)): 309 MFI; MFI (HLA-B*0801 (B8) (human)): 233 MFI; MFI (HLA-B*1301 (B13) (human)): 524 MFI; MFI (HLA-B*1302 (B13) (human)): 476 MFI; MFI (HLA-B*1401 (B64) (human)): 621 MFI; MFI (HLA-B*1402 (B65) (human)): 239 MFI; MFI (HLA-B*1501 (B62) (human) [16]): 0 MFI; MFI (HLA-B*1502 (B75) (human)): 157 MFI; MFI (HLA-B*1503 (B72) (human)): 0 MFI; MFI (HLA-B*1510 (B71) (human)): 240 MFI; MFI (HLA-B*1511 (B75) (human)): 637 MFI; MFI (HLA-B*1516 (B63) (human) [17]): 799 MFI; MFI (HLA-B*1801 (B18) (human)): 0 MFI
6 |  |  |  |  |  |  |  |  |  |  |  |  |  |  |  | Octagam (IVIg, Octapharma, Lachen, Switzerland) (antibody) | MFI [18]: 0 MFI; MFI [19]: 0 MFI; MFI [20]: 0 MFI; MFI [21]: 0 MFI; MFI [22]: 0 MFI; MFI [23]: 0 MFI; MFI [24]: 4 MFI; MFI [25]: 0 MFI; MFI [26]: 167 MFI; MFI [27]: 0 MFI; MFI [28]: 0 MFI; MFI [29]: 702 MFI; MFI [30]: 698 MFI; MFI [31]: 308 MFI; MFI [32]: 526 MFI; MFI [33]: 955 MFI
